B1: Plasmodium falciparum TRAP ectodomain (PfTRAP) (domain or fragment)
chain: RDVQNNIVDEIKYSEEVCNDQVDLYLLMDCSGSIRRHNWVNHAVPLAMKLIQQLNLNDNAIHLYVNVFSNNAKEIIRLHSDASKNKEKALIIIRSLLSTNLPYGRTNLTDALLQVRKHLNDRINRENANQLVVILTDGIPDSIQDSLKESRKLSDRGVKIAVFGIGQGINVAFNRFLVGCHPSDGKCNLYADSAWENVKNVIGPFMKAVCVEVEKTASCGVWDEWSPCSVTCGKGTRSRKREILHEGCTSEIQEQCEEERCPPKWEPLDVPDEPEDDQPRPRGDNSSVQKPEENIIDNNPQEPSPNPEEGKDENPNGFDLDENPENPPNPDIPEQKPNIPEDSEKEVPSDVPKNPEDDREENFDIPKKPENKHDNQNNLPNDKSDRNIPYSPLPPKVLDNERKQSDPQSQDNNGNRHVPNSEDRETRPHGRNNENRSYNRKYNDTPKHPEREEHEKPDNNKKKGESDNKYK
modifications: site-specific biotinylation using BirA ligase, when required
B2: Plasmodium yoelii TRAP ectodomain (PyTRAP) (domain or fragment)
chain: NGQETLDEIKYSEEVCTEQIDIHILLDGSGSIGYSNWKAHVIPMLNTLVDNLNISNDEINVSLTLFSTNSRELIKLKGYGSTSKDSLRFILAHLQNNYSPNGNTNLTSALLVVDTLINERMYRPDAIQLAIILTDGIPNDLPRSTAVVHQLKRKHVNVAIIGVGAGVNNEYNRILVGCDRYAPCPYYSSGSWNEAQNMIKPFLTKVCQEVERIAHCGKWEEWSECSTTCDEGRKIRRRQILHPGCVSEMTTPCKVRDCPQIPIPPVIPNKIPEKPSNPEEPVNPNDPNDPNNPNNPNNPNNPNNPNNPNNPNNPNNPNNPNNPNNPNNPNNPNNPNNPNNPNNPNNPNNPNNPNNPNNPNDPSNPNNPNPKKRNPKRRNPNKPKPNKPNPNKPNPNEPSNPNKPNPNEPSNPNKPNPNEPSNPNKPNPNEPSNPNKPNPNEPLNPNEPSNPNEPSNPNAPSNPNEPSNPNEPSNPNEPSNPNEPSNPNEPSNPKKPSNPNEPSNPNEPLNPNEPSNPNEPSNPNEPSNPEEPSNPKEPSNPNEPSNPEEPNPEEPSNPKEPSNPEEPINPEELNPKEPSNPEESNPKEPINPEESNPKEPINPEDNENPLIIQDEPIEPRNDSNVIPILPIIPQKGNNIPSNLPENPSDSEVEYPRPNDNGENSNNTMKSKKNIPNEPIPSPGDNPYKGHEERIPKPHRSNDDYVYDNNVNKNNKDEPEIPNNEYEEDKNKNQSKSNNGYK
modifications: site-specific biotinylation using BirA ligase, when required

Assays:
Test in all cases: BLI
[1] = target: AKBR-5
[2] = target: AKBR-1
[3] = target: TY07
[4] = target: TY19
[5] = target: TY01

Binder	Kd [1]	koff [1]	Kd [2]	koff [2]	Kd [3]	koff [3]	Kd [4]	koff [4]	Kd [5]	koff [5]
B1	52.9 nM	0.00611 s⁻¹	194 nM	0.00368 s⁻¹	–	–	–	–	–	–
B2	–	–	–	–	26.5 nM	0.00397 s⁻¹	307 nM	0.0495 s⁻¹	1.65 nM	0.000498 s⁻¹
